The data set in a line: yeast display, Sf9 membrane polyspecificity reagent, FACS + sequencing; frameworks hold sequencing errors. A digest of the protocol: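 Galactose-induced (36–48 hours) yeast carrying a synthetic nanobody display library were exposed to 10% biotinylated, detergent-solubilized Sf9 membrane reagent at 4 °C for 1 hour. FACS followed streptavidin microbead enrichment, using low and high (top ~1%) gates for expression (anti-HA) and reagent binding (streptavidin). Colony PCR, MiSeq 2 × 250 sequencing and CDR-length filtering followed. Labels for polyreactivity reflect the gate of origin.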
As to “QVQLVESGGGLVQAGGSLRLSCAASGITFERNAMGWYRQAPGKERELVAAITGRGTSTYADSVKGRFTISRDNAKNTVYLQMNSLKPEDTAVYYCAAVGWFADFLFSDINGYYWGQGTQVTVSS”, the “polyreactivity (PSR sort gate)” value is “low polyreactivity”. For “QVQLVESGGGLVQAGGSLRLSCAASGITFERYVMGWYIQAPGKERELVASISRSGSTFYADSVKGRFTISRDNAKNTVYLQMNSLKPEDTAVYYCNADRFWFHWVYSRYHYDYWGQGTQVTVSS” the value was “high polyreactivity”. For “QVQLVESGGGLVQAGGSLRLSCAASGITFEVNAMGWYRQAPGKERELVARISRDGSTNYADSVKGRFTISRDNAKNTVYLQRNSLKPEDTAVYYCNAKLYRSFDYWGQGTQVTVSS” the value was “low polyreactivity”; for “QVQLVESGGGLVQAGGSLRLSCAASGITFEYYAMGWYRQAPGKERELVAAIDTGGSTNYADSVKGRFTISRDNAKNTVYLQMNSLKPEDTAVYYCTADGPSTPWVDYGYWGQGTQVTVSS”, “low polyreactivity”. For “QVQLVESGGGLVQAGGSLRLSCAASGITFEYYAMGWYRQAPGKERELVAAISWSGSSTYYADSVKGRFTISRDNAKNTVYLQMNSLKPEDTAVYYCNADSSWWASDDQYDYWGQGTQVTVSS” the value was “low polyreactivity”; for “QVQLVESGGGLVQAGGSLRLSCAASGITFFDYAMGWSRQAPGKERELVAAIDLSDGRTYYADSVKGRFTISRDNAKNTFYLQMNSLKPEDTAVYYCAAVSTSLYWAGYDYWGQGTQVTVSS”, “low polyreactivity”. “QVQLVESGGGLVQAGGSLRLSCAASGITFFENAMGWYRQAPGKERELVAAISYSGGNTYADSVKGRFTISRDNAKNTVYLQMNSLKPEDTAVYYCNADYAGWGEYDYWGQGTQVTVSS”: the “polyreactivity (PSR sort gate)” value is reported as “low polyreactivity”. “QVQLVESGGGLVQAGGSLRLSCAASGITFFEYAMGWYRQAPGKERELVAVITSGGSTNYADSVKGRFTISRDNAKNTVYLQMNSLKPEDTAVYYCNARVVKYRWWYDYYYWGQGTQVTVSS”: the “polyreactivity (PSR sort gate)” value is recorded as “low polyreactivity”. For “QVQLVESGGGLVQAGGSLRLSCAASGITFFIYAMGWYRQAPGKQRELFAAIRSGGSTNYADSVKGRFTISRDNAQNTVYLQMNSLKPEDTSVFYCAADVYGTVRRVGWYYVGEGYDYWGQGTQVTVSS” the value was “low polyreactivity”; for “QVQLVESGGGLVQAGGSLRLSCAASGITFFVYAMGWYRQAPGKERELVAAITSGDSTSYADSVKGRFTISRDNAKNTVYLQMNSLKPEDTAVYYCAAEQVTIEDGVYFDFNSWGQGTQVTVSS”, “low polyreactivity”.

For “QVQLVESGGGLVQAGGSLRLSCAASGITFFVYDMGWYRQAPGKERELVAAITWSGDSTYYADSVKGRFTISRDNAKNTVYLQMNSLKPEDTAVYYCAAQFDVYYSRQPYDYNRSGYWGQGTQVTVSS”, the “polyreactivity (PSR sort gate)” value is “low polyreactivity”. Consider “QVQLVESGGGLVQAGGSLRLSCAASGITFGAYTMGWYRQAPGKERELVAAISRTGARTYYADSVKGRFTISRDNAKNTVYLQMNSLKPEDTAVYYCAAYRIGQYDYWGQGTQVTVSS”, for which the “polyreactivity (PSR sort gate)” value was “high polyreactivity”. As to “QVQLVESGGGLVQAGGSLRLSCAASGITFGDYAMGWDRQAPGKERELVAAISTSGVRTYYADSVKGRFTISRDNAKNTVYLQMNSLKPEDTAVYYCNARDYSGFQTGASAAFDYWGQGTQVTVSS”, the “polyreactivity (PSR sort gate)” value is recorded as “low polyreactivity”. Turning to “QVQLVESGGGLVQAGGSLRLSCAASGITFGGNAMGWYRQAPGKERELVAAISSSGGSTYYADSVKGRFTISRDNAKNTVYLQMNSLKPEDTAVYYCAARNRYPLRFYYWGQGTQVTVSS”, the “polyreactivity (PSR sort gate)” value is “high polyreactivity”.

For the sequence “QVQLVESGGGLVQAGGSLRLSCAASGITFGGYAMGWYRQAPGKERELVASIRSGSSTNYADSVKGRFTISRDNAKNTVYLQMNSLKPEDTAVYYCAARNFRNRYGYWGQGTQVTVSS”, the “polyreactivity (PSR sort gate)” value is listed as “high polyreactivity”. For “QVQLVESGGGLVQAGGSLRLSCAASGITFGPYAMGWYRQAPGKERELVAAITWGGGSTYYADSVKGRFTISRDNAKNTVYLQMNSLKPEDTAVYYCNAEGSTTSRYLPYDYWGQGTQVTVSS” the value was “low polyreactivity”; for “QVQLVESGGGLVQAGGSLRLSCAASGITFGRNTMGWYRQAPGKERELVAAIRSGGSTNYADSVKGRFSISRDNAKNTVYLLMNSLKPEDPAVYYWNAQPWVRFWPYDYWGQGTQVTVSS”, “low polyreactivity”; for “QVQLVESGGGLVQAGGSLRLSCAASGITFGSNAMGWYRQAPGKERELVAAINSGGTTTYADSVKGRFTISRDNAKNTVYLQMNSLKPEDTAVYYCAVSGGASYQFVGSPDTEHDYWGQGTQVTVSS”, “low polyreactivity”. Regarding “QVQLVESGGGLVQAGGSLRLSCAASGITFGTNAMGWYRQAPGKERELVAAISGGGGSTYYADSVKGRFTISRDNAKYTVYLQMTCLKPEDTAFYYCAARRFKRSSLSFYVGYYYWGQGTQVTVSS”, the “polyreactivity (PSR sort gate)” value is recorded as “high polyreactivity”.

In the case of “QVQLVESGGGLVQAGGSLRLSCAASGITFGTYAMGWYRQAPGKERELDAAIDTSGDDTYYADSVKGRFTISRDNAKNTVYLQMNSLKPEDTAVYYCAADFPSAEVDYWGQGTQVTVSS”, the “polyreactivity (PSR sort gate)” value was “low polyreactivity”.

Consider “QVQLVESGGGLVQAGGSLRLSCAASGITFGVYALGWSRQARGNERELVAAISVNGGSTYYADSVKGRYTISRDNAKNTVYLQMNSLKPEDTAVYYCAADVLYYIDDDSIIEYDYWGQGTQVTVSS”, for which the “polyreactivity (PSR sort gate)” value is on record as “low polyreactivity”. As for “QVQLVESGGGLVQAGGSLRLSCAASGITFGVYAMGWYRQAPGKERELVAAISWSVGSTYYADSVKGRFTISRDNAKNTVYLQMNSLKPEDTAVYYCAAYYGVGFDYWGQGTQVTVSS”, the entry is “high polyreactivity”; as for “QVQLVESGGGLVQAGGSLRLSCAASGITFGVYTMGWYRQAPGKEREFVAVISGRGGSTYYADSVKGRFTISRDNAKNTVYLQMNSLKPEDTAVYYCAADYYYIVDYWGQGTQVTVSS”, “high polyreactivity”. For “QVQLVESGGGLVQAGGSLRLSCAASGITFGWYAMGWYRQAPGKERELVAAISWSGGTTYYADSVKGRFTISRDNAKNTVYLQMNSLKPEDTAVYYCAATWYYPTVYAGNYWGQGTQVTVSS”, the “polyreactivity (PSR sort gate)” value is given as “high polyreactivity”. As for “QVQLVESGGGLVQAGGSLRLSCAASGITFGYYAMGWSRQAPGKERELVAAIRSSGGSTYYADSVKGRFTISRDNAKNNVYLQMNSLKPEDTAVYYCNARYRKSSRPGYEPYERYYWGQGTQVTVSS”, the entry is “high polyreactivity”; as for “QVQLVESGGGLVQAGGSLRLSCAASGITFGYYARGGYRQAPGNERELVAAISRNGGSTYYADSVKGRFTISRDNAKNTVYLQMNSLKPEDTAVYYCNARGNQAVIGYEYWGQGTQVTVSS”, “high polyreactivity”; as for “QVQLVESGGGLVQAGGSLRLSCAASGITFHDNAMGWYRQAPGKERELVAVITRRGGRTYYADSVKGRFTISRDNAKNTVYLQMNSLKPEDTAVYYCAAYYDYTHRFYYWGQGTQVTVSS”, “high polyreactivity”.

With “QVQLVESGGGLVQAGGSLRLSCAASGITFHGYAMGWYRQAPGKERELVAAISDSGSSTYYADSVKGRFTISRDNAKNTVYLQMNSLKPEDTAVYYCAAVSGFYDQYDYWGQGTQVTVSS”, the “polyreactivity (PSR sort gate)” value is “low polyreactivity”. As for “QVQLVESGGGLVQAGGSLRLSCAASGITFHRNTMGWYRQAPGTETELVDSITSGGITYYADSVKGSFTISRDNEKNTVYLQMNSLKPEDTAVYYCAAEGYWTYWVARSDIPYFYWGQGSQVTVSS”, the “polyreactivity (PSR sort gate)” value is recorded as “high polyreactivity”.

Regarding “QVQLVESGGGLVQAGGSLRLSCAASGITFHVNAMGWYRQAPGKERELVARITTSGGSTSYADSVKGRFTISRDNAKNTVYLQMNSLKPEDTAVYYCAADLARYYSEYDYWGQGTQVTVSS”, the “polyreactivity (PSR sort gate)” value is reported as “low polyreactivity”. “QVQLVESGGGLVQAGGSLRLSCAASGITFIAYTMGWYRQAPGKERELVAGISRNGGRTYYADSVKGRFTISRDNAKNTVYLQMNSLKPEDTAVYYCNKVVSTYSSIKYDYWGQGTQVTVSS”: the “polyreactivity (PSR sort gate)” value is recorded as “high polyreactivity”. “QVQLVESGGGLVQAGGSLRLSCAASGITFISYVKGWYRQAPGKEREVVAAISKRGGSTYYADSVKGRFTISRDNAKNTVYFKINSLKAEDTAVYYCAAKTIPWSVGYDYWGQGTQVTVSS”: the “polyreactivity (PSR sort gate)” value was “high polyreactivity”. As for “QVQLVESGGGLVQAGGSLRLSCAASGITFIVNAMGWYRQAPGKERELVARITTSGGSTSYADSVKGRFTISRDNAKYTVYLQMYSLKPEDSAVYYCAADRGGYYSEYDYWGQGTQVTVSS”, the entry is “low polyreactivity”; as for “QVQLVESGGGLVQAGGSLRLSCAASGITFIYYAMGWYRQAPGKERELVAAISTGGSTYYADSVKGRCTISRDNAKNTVYLQRKSLKPEDTAVYFWNALRKSLRGGDYWGQGTQVTVSS”, “high polyreactivity”; as for “QVQLVESGGGLVQAGGSLRLSCAASGITFKAYAMGWYRQAPGKERELVAAINTSGARTYYADSVKGRFTISRDNAKNTVYLQMNSLKTEDTAVYYCNARLHQQEGDDWGQGTQVTVSS”, “low polyreactivity”. As for “QVQLVESGGGLVQAGGSLRLSCAASGITFKRYAMGWYRQAPGKERELVAAITISAGSTYYADSVKGRFTISRDNAKNNVYLQMNSLKPEDTAVYYCAAESYGSWYYYWGQGTQVTVSS”, the entry is “high polyreactivity”; as for “QVQLVESGGGLVQAGGSLRLSCAASGITFKRYTMGWYRQAPGKERELVADITWSGGSTYADSVKGRFTISRDNAKNTVYLQMNSLKPEDTAVYYCAAEWQTWYGVEYDYWGQGTQVTVSS”, “high polyreactivity”.

With “QVQLVESGGGLVQAGGSLRLSCAASGITFKSNAMGWYRQAPGKERELVAAISRRASSTYYADSVKGRFTISRDNAKNTVYLQMNSLKPEDTAVYYCNAVLPVYRTNMDYWGQGTQVTVST”, the “polyreactivity (PSR sort gate)” value is on record as “high polyreactivity”. Turning to “QVQLVESGGGLVQAGGSLRLSCAASGITFKSYAMGWYRKAPGKERELVAAITRSGGSTYYADSVKGRLTISRDNAKNTVYLQMNSLKPEDTAVYYCAARYFIAYPQYTYDYWGQGTQVTVSS”, the “polyreactivity (PSR sort gate)” value was “high polyreactivity”. As for “QVQLVESGGGLVQAGGSLRLSCAASGITFKTYAMGWYRQAPGKERELVATINRGSRTNYADSVKGRFTISRDNAKNTVYLQMNSLKPEDTAVYYCAAEYVTYISSEMDYWGQGTQVTVSS”, the entry is “low polyreactivity”; as for “QVQLVESGGGLVQAGGSLRLSCAASGITFKTYTMGWYRQAPGKERELVAAITRSGAGTYYADSVKGRFTISRDNAKNTVDLQMNSLKPEDTAVYYCAARVRWGYRYGYWGQGTQVTVSS”, “high polyreactivity”.
